Measured values as given in paper PMC9313494.

Biological target: Lys-Nle peptide
Experiment: SPR; Lys-Nle peptide immobilised via its terminal thiol group on a CM5 chip (1123.9 RU); BMP-2 flown at increasing concentrations in PBS-T at 50 µL/min; regeneration with Gly-HCl pH 1.5; nonfunctionalized reference channel; Langmuir fit (BIAevaluation)

- Kd: 36.6 nM
B1: bone morphogenetic protein-2 (BMP-2) (ligand)
chain: QAKHKQRKRLKSSCKRHPLYVDFSDVGWNDWIVAPPGYHAFYCHGECPFPLADHLNSTNHAIVQTLVNSVNSKIPKACCVPTELSAISMLYLDENEKVVLKNYQDMVVEGCGCR
